Patent publication US20230265151A1, “GIP/GLP1 CO-AGONIST COMPOUNDS” (priority 2020, published 2023)
Changes are numbered by the printed parent chain. *1 amine or outer side, *2 acyl side, *3 side chain or, on linkers, in order; H or OH if unused. Where no end group is shown, it is not given here. Side-chain parts run from the residue outwards. [ ]: non-standard residue; d: D form. The star is where a group is joined. αMePhe(2-F) = C[C@](N)(Cc1ccccc1F)C(=O)O; γGlu = O=C(O)[C@H](CCC(=O)[*:2])N[*:1]; C14 diacid = O=C(O)CCCCCCCCCCCCC(=O)*; αMeF = C[C@](N)(Cc1ccccc1)C(=O)O; αMeL = CC(C)C[C@](C)(N)C(=O)O; Orn = NCCC[C@H](N)C(=O)O; AEEA = NCCOCCOCC(=O)O; Aib = CC(C)(N)C(=O)O

T1: human GIP receptor (human, UniProt P48546 22-466)
T1 sequence (looked up): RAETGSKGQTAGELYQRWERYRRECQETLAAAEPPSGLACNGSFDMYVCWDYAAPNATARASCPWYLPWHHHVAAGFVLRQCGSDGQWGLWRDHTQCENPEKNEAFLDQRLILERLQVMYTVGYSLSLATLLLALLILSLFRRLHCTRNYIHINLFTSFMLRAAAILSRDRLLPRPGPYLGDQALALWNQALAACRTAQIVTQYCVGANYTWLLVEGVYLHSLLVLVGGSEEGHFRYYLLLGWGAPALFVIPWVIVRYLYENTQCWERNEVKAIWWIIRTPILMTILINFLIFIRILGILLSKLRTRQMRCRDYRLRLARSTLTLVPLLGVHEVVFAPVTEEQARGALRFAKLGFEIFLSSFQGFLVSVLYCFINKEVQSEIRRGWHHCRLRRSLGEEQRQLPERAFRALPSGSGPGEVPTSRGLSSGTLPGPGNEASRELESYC

B1: Example 121 (peptide)
peptide: YXEGTXTSDXXIXLDXKAQXEXIKXLIEGGPSSGAPPPS
modifications: Aib2, αMeF(2F)6, 4Pal10, Aib11, αMeL13, Orn16, Aib20, αMeF22, αMeF25, K17 and K24: K(AEEA2-(γ-Glu)-CO-(CH2)12-CO2H), C-terminal NH2
B2: Example 124 (peptide)
peptide: B1 peptide with X11S
modifications: Aib2, αMeF(2F)6, Ac5c10, αMeL13, Orn16, Aib20, αMeF22, αMeF25, K17 and K24: K(AEEA2-(γ-Glu)-CO-(CH2)12-CO2H), C-terminal NH2
B3: Example 140 (peptide)
peptide: B1 peptide with X11S, X22F, K24X, G30K
modifications: Aib2, αMeF(2F)6, 4Pal10, αMeL13, Orn16, Aib20, D-Glu24, αMeY25, K17 and K30: K(AEEA2-(γ-Glu)-CO-(CH2)10-CH3), C-terminal NH2
B4: Example 122 (peptide)
peptide: B1 peptide with X10V, X11S
modifications: Aib2, αMeF(2F)6, αMeL13, Orn16, Aib20, αMeF22, αMeF25, K17 and K24: K(AEEA2-(γ-Glu)-CO-(CH2)12-CO2H), C-terminal NH2
B5: Example 128 (peptide)
peptide: B1 peptide with X11S, X22F
modifications: Aib2, αMeF(2F)6, 4Pal10, αMeL13, Orn16, Aib20, αMeY25, K17 and K24: K(AEEA2-(γ-Glu)-(10-(4-carboxyphenoxy)decanoyl)), C-terminal NH2
B6: Example 131 (peptide)
peptide: B1 peptide with X11S, E21K, X22F, K24X
modifications: Aib2, αMeF(2F)6, 4Pal10, αMeL13, Orn16, Aib20, D-Glu24, αMeY25, K17 and K21: K(AEEA2-(γ-Glu)-(4-(4-tert-butylphenyl)butanoyl)), C-terminal NH2
B7: Example 126 (peptide)
peptide: B1 peptide with X11S, X22F, K24X, P31K
modifications: Aib2, αMeF(2F)6, 4Pal10, αMeL13, Orn16, Aib20, D-Glu24, αMeY25, K17 and K31: K(AEEA2-(γ-Glu)-(8-(4-carboxyphenoxy)octanoyl)), C-terminal NH2
B8: Example 12 (peptide)
peptide: B1 peptide with X11S, X22F, K24X, P31K
modifications: Aib2, αMeF(2F)6, 4Pal10, αMeL13, Orn16, Aib20, D-Glu24, αMeY25, K17 and K31: K(AEEA-(γ-Glu)-(10-(4-carboxyphenoxy)decanoyl)), C-terminal NH2
B9: Example 137 (peptide)
peptide: B1 peptide with X11S, E21K, X22F, K24X
modifications: Aib2, αMeF(2F)6, 4Pal10, αMeL13, Orn16, Aib20, D-Glu24, αMeY25, K17 and K21: K(AEEA2-(γ-Glu)-CO-(CH2)10-CH3), C-terminal NH2
B10: Example 132 (peptide)
peptide: B1 peptide with X11S, X22F
modifications: Aib2, αMeF(2F)6, 4Pal10, αMeL13, Orn16, Aib20, αMeY25, K17 and K24: K(AEEA2-(γ-Glu)-(4-(4-tert-butylphenyl)butanoyl)), C-terminal NH2
B11: Example 127 (peptide)
peptide: B1 peptide with X11S, E21K, X22F, K24X
modifications: Aib2, αMeF(2F)6, 4Pal10, αMeL13, Orn16, Aib20, D-Glu24, αMeY25, K17 and K21: K(AEEA2-(γ-Glu)-(10-(4-carboxyphenoxy)decanoyl)), C-terminal NH2
B12: Example 13 (peptide)
peptide: B1 peptide with X11S, X22F, K24X, P31K
modifications: Aib2, αMeF(2F)6, 4Pal10, αMeL13, Orn16, Aib20, D-Glu24, αMeY25, K17 and K31: K(AEEA-(γ-Glu)-CO-(CH2)14-CH3), C-terminal NH2
B13: Example 134 (peptide)
peptide: B1 peptide with X11S, X22F, K24X, G30K
modifications: Aib2, αMeF(2F)6, 4Pal10, αMeL13, Orn16, Aib20, D-Glu24, αMeY25, K17 and K30: K(AEEA2-(γ-Glu)-(4-(4-tert-butylphenyl)butanoyl)), C-terminal NH2
B14: Example 143 (peptide)
peptide: B1 peptide with X11S, X22F, K24X, P31K
modifications: Aib2, αMeF(2F)6, 2FA10, αMeL13, Orn16, Aib20, D-Glu24, αMeY25, K17 and K31: K(AEEA2-(γ-Glu)-CO-(CH2)12-CO2H), C-terminal NH2
B15: Example 129 (peptide)
peptide: B1 peptide with X11S, X22F, K24X, E28K
modifications: Aib2, αMeF(2F)6, 4Pal10, αMeL13, Orn16, Aib20, D-Glu24, αMeY25, K17 and K28: K(AEEA2-(γ-Glu)-(10-(4-carboxyphenoxy)decanoyl)), C-terminal NH2
B16: Example 125 (peptide)
peptide: B1 peptide with X11S, X22F, K24X, P31K
modifications: Aib2, αMeF(2F)6, 4Pal10, αMeL13, Orn16, Aib20, D-Glu24, αMeY25, K17 and K31: K(AEEA2-(γ-Glu)-(7-(4-carboxyphenoxy)heptanoyl)), C-terminal NH2
B17: Example 133 (peptide)
peptide: B1 peptide with X11S, X22F, K24X, E28K
modifications: Aib2, αMeF(2F)6, 4Pal10, αMeL13, Orn16, Aib20, D-Glu24, αMeY25, K17 and K28: K(AEEA2-(γ-Glu)-(4-(4-tert-butylphenyl)butanoyl)), C-terminal NH2
B18: Example 136 (peptide)
peptide: B1 peptide with X10K, X11S, X22F, K24X
modifications: Aib2, αMeF(2F)6, αMeL13, Orn16, Aib20, D-Glu24, αMeY25, K10 and K17: K(AEEA2-(γ-Glu)-CO-(CH2)10-CH3), C-terminal NH2
B19: Example 130 (peptide)
peptide: B1 peptide with X10K, X11S, X22F, K24X
modifications: Aib2, αMeF(2F)6, αMeL13, Orn16, Aib20, D-Glu24, αMeY25, K10 and K17: K(AEEA2-(γ-Glu)-(4-(4-tert-butylphenyl)butanoyl)), C-terminal NH2
B20: Example 139 (peptide)
peptide: B1 peptide with X11S, X22F, K24X, E28K
modifications: Aib2, αMeF(2F)6, 4Pal10, αMeL13, Orn16, Aib20, D-Glu24, αMeY25, K17 and K28: K(AEEA2-(γ-Glu)-CO-(CH2)10-CH3), C-terminal NH2
B21: Example 144 (peptide)
peptide: B1 peptide with X11S, X22F, K24X, P31K
modifications: Aib2, αMeF(2F)6, 4TAA10, αMeL13, Orn16, Aib20, D-Glu24, αMeY25, K17 and K31: K(AEEA2-(γ-Glu)-CO-(CH2)12-CO2H), C-terminal NH2
B22: Example 138 (peptide)
peptide: B1 peptide with X11S, X22F
modifications: Aib2, αMeF(2F)6, 4Pal10, αMeL13, Orn16, Aib20, αMeY25, K17 and K24: K(AEEA2-(γ-Glu)-CO-(CH2)10-CH3), C-terminal NH2
B23: Example 135 (peptide)
peptide: YXEGTXTSDXSIXLDXKAQXEFIXXLIEGGPSSGAPPPSK
modifications: Aib2, αMeF(2F)6, 4Pal10, αMeL13, Orn16, Aib20, D-Glu24, αMeY25, K17 and K40: K(AEEA2-(γ-Glu)-(4-(4-tert-butylphenyl)butanoyl)), C-terminal NH2
B24: Example 141 (peptide)
peptide: B23 peptide
modifications: Aib2, αMeF(2F)6, 4Pal10, αMeL13, Orn16, Aib20, D-Glu24, αMeY25, K17 and K40: K(AEEA2-(γ-Glu)-CO-(CH2)10-CH3), C-terminal NH2

Experiments:
Assay in all cases: cell-based or functional assay
human GLP-1 receptor = human GLP-1 receptor (human, UniProt P43220 24-463)
human glucagon receptor = human glucagon receptor (human, UniProt P47871 26-477)
human GIP receptor = target: T1, human GIP receptor

Binder | EC50, cAMP (human GLP-1 receptor) | EC50, cAMP (human glucagon receptor) | EC50, cAMP (human GIP receptor) | Emax, cAMP (human GIP receptor) | Emax, cAMP (human GLP-1 receptor)
B1 | 8.95 nM | > 9950 nM | 0.0271 nM | 92.8% | 
B2 | 1.24 nM | > 9950 nM | 0.1 nM |  | 93.3%
B3 | 0.131 nM | > 9950 nM | 0.0121 nM | 98.5% | 
B4 | 0.41 nM | > 9950 nM | 0.064 nM |  | 94.3%
B5 | 0.293 nM | > 9950 nM | 0.0232 nM |  | 
B6 | 0.19 nM | > 9950 nM | 0.0156 nM |  | 
B7 | 1.69 nM | > 9950 nM | 0.0472 nM |  | 
B8 | 0.423 nM | > 9950 nM | 0.0127 nM |  | 
B9 | 0.134 nM | > 9950 nM | 0.0116 nM |  | 
B10 | 0.182 nM | > 9950 nM | 0.0208 nM |  | 
B11 | 0.762 nM | > 9950 nM | 0.027 nM |  | 
B12 | 0.0214 nM | > 9950 nM | 0.00597 nM |  | 
B13 | 0.577 nM | > 9950 nM | 0.0238 nM |  | 
B14 | 0.512 nM | > 9950 nM | 0.022 nM |  | 
B15 | 1.28 nM | > 9950 nM | 0.0248 nM |  | 
B16 | 2.78 nM | > 9950 nM | 0.0547 nM |  | 
B17 | 0.258 nM | > 9950 nM | 0.018 nM |  | 
B18 | 0.0918 nM | > 9950 nM | 0.0069 nM | 97.4% | 
B19 | 0.204 nM | > 9950 nM | 0.0266 nM | 94.7% | 100%
B20 | 0.141 nM | > 9950 nM | 0.0108 nM |  | 111%
B21 | 3.47 nM | > 9950 nM | 0.0193 nM | 90% | 
B22 | 0.267 nM | > 9950 nM | 0.0197 nM |  | 
B23 | 0.271 nM | > 9950 nM | 0.0184 nM | 92.3% | 
B24 | 0.0693 nM | > 9950 nM | 0.00723 nM | 98.8% | 
Y[Aib]EGT[αMePhe(2-F)]TSDV[Aib]I[αMeL]LD[Orn]K([AEEA-AEEA-γGlu-C14 diacid])AQ[Aib]E[αMeF]IK([AEEA-AEEA-γGlu-C14 diacid])[αMeF]LIEGGPSSGAPPPS-NH2 [Example 123] | 0.508 nM | > 9950 nM | 0.101 nM | 94.9% | 96.3%
